Here are results for three molecules from paper PMC5389741 (Molecular cell, 2017).

Substitutions are numbered along the chain they refer to. In names and notes the source's numbering stands.

Assay [1] has as its target T1, His-PGK1 (wild type, not acetylated) (human, UniProt P00558 1-417).
T1 sequence: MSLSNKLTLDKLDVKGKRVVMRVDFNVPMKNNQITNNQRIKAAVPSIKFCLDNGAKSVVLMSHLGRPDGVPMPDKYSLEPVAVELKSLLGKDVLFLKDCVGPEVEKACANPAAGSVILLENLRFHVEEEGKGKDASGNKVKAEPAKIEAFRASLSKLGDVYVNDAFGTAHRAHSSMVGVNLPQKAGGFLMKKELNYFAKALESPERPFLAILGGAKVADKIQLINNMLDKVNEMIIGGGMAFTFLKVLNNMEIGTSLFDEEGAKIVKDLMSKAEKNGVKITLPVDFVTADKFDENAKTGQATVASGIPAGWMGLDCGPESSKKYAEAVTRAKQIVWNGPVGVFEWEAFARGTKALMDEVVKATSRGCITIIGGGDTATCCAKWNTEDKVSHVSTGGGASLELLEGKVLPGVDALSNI
In words: pull-down.

A further assay concerns the target GST-Beclin1 (human, UniProt Q14457 1-450). The assay is described as follows: pull-down.

GST-Beclin1, sequence (Q14457 whole entry): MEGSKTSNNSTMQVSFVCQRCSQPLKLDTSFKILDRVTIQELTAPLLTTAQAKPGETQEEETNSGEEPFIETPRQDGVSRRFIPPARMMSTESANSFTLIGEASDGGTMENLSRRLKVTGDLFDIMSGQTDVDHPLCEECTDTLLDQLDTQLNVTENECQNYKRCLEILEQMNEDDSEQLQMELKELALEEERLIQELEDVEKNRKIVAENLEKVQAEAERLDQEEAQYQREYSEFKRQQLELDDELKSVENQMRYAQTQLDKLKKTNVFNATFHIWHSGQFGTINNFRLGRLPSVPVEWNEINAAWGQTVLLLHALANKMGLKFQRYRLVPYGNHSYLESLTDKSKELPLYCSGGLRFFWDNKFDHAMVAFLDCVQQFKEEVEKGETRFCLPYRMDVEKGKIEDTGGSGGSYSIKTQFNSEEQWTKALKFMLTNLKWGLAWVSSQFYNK

B1: GST-ARD1 (wild type) (enzyme, human, UniProt P41227 1-235, looked up)
chain: MNIRNARPEDLMNMQHCNLLCLPENYQMKYYFYHGLSWPQLSYIAEDENGKIVGYVLAKMEEDPDDVPHGHITSLAVKRSHRRLGLAQKLMDQASRAMIENFNAKYVSLHVRKSNRAALHLYSNTLNFQISEVEPKYYADGEDAYAMKRDLTQMADELRRHLELKEKGRHVVLGAIENKVESKGNSPPSSGEACREEKGLAAEDSGGDSKDLSEVSETTESTDVKDSSEASDSAS
B1: the binding result in assay [1] is reported as “binds”.

B2: GST-ARD1 S228A (enzyme, human, UniProt P41227 1-235, looked up)
chain: B1 chain with S228A
As to B2, in assay [1], the binding result is “binds”.

B3: His-PGK1 acetylated by Flag-ARD1 and Ac-CoA in vitro (enzyme, human)
chain: T1 sequence
modifications: acetyl-lysine at K388 (by ARD1 in vitro)
On to B3, for which the binding result with GST-Beclin1 is on record as “binds”.
